This is an account of results in patent US20250258178A1 (SHIONOGI, published 2025).

The target in assay [1] is T1, Peptide #5 (human).
T1 construct: 15-mer of human HRG printed on a PEPperCHIP peptide microarray
T1 peptide: HGPPLPQGPPPLLPM
Put plainly: peptide microarray, fluorescent anti-mouse IgG. As for the experimental part:
(§1) An overlapping peptide scanning method was performed to find out specific antibody-binding peptide epitopes. The amino acid sequence of the HRG protein was obtained in NCBI protein database. PEPperPrint (registered trademark) (Heidelberg, Germany) was commissioned to prepare PEPperCHIP peptide microarrays designed from HRG protein sequences. Each peptide consisted of an overlapping peptide library having 15 amino acid residues overlapping 14 amino acid residues and was extended at the N- and C-terminus with a neutral GSGSGSG linker to ensure that the peptides were separated from each other. […] After treatment of 21 types of anti-HRG monoclonal antibodies, it stained with an anti-mouse IgG polyclonal secondary antibody followed by reading fluorescence intensity on a scanner to quantify protein-antibody binding.
(§2) Each microarray was processed as follows. Before incubation with a sample, a standard buffer was applied on slides followed by treating with a blocking buffer. The microarray was treated with a fluorescently-labeled anti-mouse IgG secondary antibody followed by the measurement of background fluorescence intensity caused by non-specific interactions using a scanner.
(§3) The microarray was incubated with the 21 types of anti-HRG monoclonal antibodies. The microarray was stained with a fluorescently labeled anti-mouse IgG secondary antibody. The fluorescence intensity at each position was measured by a scanner.

Assay [2] addresses T2, Peptide #2 (human).
T2 construct: 15-mer of human HRG printed on a PEPperCHIP peptide microarray
T2 peptide: DHSHGPPLPQGPPPL
Put plainly: peptide microarray, fluorescent anti-mouse IgG. As for the experimental part:
as §1, §2, §3

Assay [3] deals with T3, Peptide #4 (human).
T3 construct: 15-mer of human HRG printed on a PEPperCHIP peptide microarray
T3 peptide: SHGPPLPQGPPPLLP
Put plainly: peptide microarray, fluorescent anti-mouse IgG. As for the experimental part: as §1, §2, §3

For assay [4], the target named is T4, Peptide #7 (human).
T4 construct: 15-mer of human HRG printed on a PEPperCHIP peptide microarray
T4 peptide: PPLPQGPPPLLPMSC
The assay is described as follows: peptide microarray, fluorescent anti-mouse IgG. As for the experimental part: as §1, §2, §3

Assay [5] addresses T5, Peptide #6 (human).
T5 construct: 15-mer of human HRG printed on a PEPperCHIP peptide microarray
T5 peptide: GPPLPQGPPPLLPMS
The assay is described as follows: peptide microarray, fluorescent anti-mouse IgG. As for the experimental part: as §1, §2, §3

Assay [6] has as its target T6, Peptide #8 (human).
T6 construct: 15-mer of human HRG printed on a PEPperCHIP peptide microarray
T6 peptide: PLPQGPPPLLPMSCS
The assay is described as follows: peptide microarray, fluorescent anti-mouse IgG. As for the experimental part: as §1, §2, §3

The target in assay [7] is T7, human histidine-rich glycoprotein (HRG), purified from human plasma (human, UniProt P04196 19-525).
T7 construct: also called human purified HRG; human purified HRG protein
T7 sequence: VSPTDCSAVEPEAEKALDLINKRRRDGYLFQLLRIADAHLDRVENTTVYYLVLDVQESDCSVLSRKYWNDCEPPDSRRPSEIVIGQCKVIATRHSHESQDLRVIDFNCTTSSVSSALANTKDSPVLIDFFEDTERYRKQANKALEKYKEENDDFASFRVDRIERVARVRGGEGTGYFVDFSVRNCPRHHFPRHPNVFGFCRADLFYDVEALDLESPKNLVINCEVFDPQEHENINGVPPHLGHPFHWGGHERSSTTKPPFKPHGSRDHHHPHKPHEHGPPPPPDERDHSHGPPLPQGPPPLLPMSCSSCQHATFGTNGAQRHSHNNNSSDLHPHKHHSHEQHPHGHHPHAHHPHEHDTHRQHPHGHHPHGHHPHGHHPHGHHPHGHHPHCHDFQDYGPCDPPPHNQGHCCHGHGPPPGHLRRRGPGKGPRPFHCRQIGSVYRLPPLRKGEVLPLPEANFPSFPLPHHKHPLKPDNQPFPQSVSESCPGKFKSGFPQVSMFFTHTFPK
The assay is described as follows: sandwich ELISA, HRG captured by solid phase 42-10D. As for the experimental part: (§4) The capture antibody solution was dispensed at 25 μL per well into 384-well Maxisorp plates (NUNC), and the plates were incubated at room temperature for 3 hours. The plates were washed twice with 120 μL of washing solution per well (0.05% Tween 20-containing PBS). A blocking solution (1% BSA-containing PBS) was dispensed at 30 μL per well, and the plates were incubated at room temperature for 3 hours. The blocking solution was removed followed by dispensing the standard substance for evaluation at 20 μL per well (n=2), and the plates were incubated at room temperature for 3 hours. After washing the plates four times with the washing solution as described above, the solution of each detector antibody was dispensed at 10 μL per well, followed by dispensing a horseradish peroxidase-streptavidin solution (0.05 μg/mL) at 10 μL per well, and the plates were incubated at room temperature for 1 hour. After washing the plates four times with the washing solution as described above, a chromogenic substrate solution (TMB (3,3′,5,5′-tetramethylbenzidine)) was dispensed at 20 μL per well followed by incubating the plates at room temperature for 10 minutes, then a reaction stop solution 0.5 M H₂SO₄ was added at 20 μL/well, and the absorbance at 450 nm was measured.
(§5) The results regarding the evaluation of combinations chosen from 21 types of anti-HRG monoclonal antibodies are shown in Table 1. In Table 1, the absorbance at a wavelength of 450 nm of each combination was determined as follows: less than 1.0 OD: −, 1.0 OD or more and less than 2.0 OD: +, 2.0 OD or more and less than 3.0 OD: ++, and 3.0 OD or more: +++. The combinations of antibodies which could construct a sandwich ELISA system having enough level of absorbance change were 86 sets evaluated as ++ or +++ in Table 1.
(In general: An ELISA detects its analyte on a solid surface through an enzyme-linked reagent.)

In assay [8] the target is T7, human histidine-rich glycoprotein …. Put plainly: sandwich ELISA, HRG captured by solid phase 9-1F. As for the experimental part:
as §4, §5

In assay [9] the target is T8, Peptide #23 (human).
T8 construct: 15-mer of human HRG printed on a PEPperCHIP peptide microarray
T8 peptide: HGHHPHCHDFQDYGP
Put plainly: peptide microarray, fluorescent anti-mouse IgG. As for the experimental part:
as §1, §2, §3

Assay [10] deals with T9, Peptide #19 (human).
T9 construct: 15-mer of human HRG printed on a PEPperCHIP peptide microarray
T9 peptide: GHHPHGHHPHCHDFQ
The assay is described as follows: peptide microarray, fluorescent anti-mouse IgG. As for the experimental part: as §1, §2, §3

In assay [11] the target is T10, Peptide #16 (human).
T10 construct: 15-mer of human HRG on the peptide microarray; the printed position spans only 14 residues
T10 peptide: HPHGHHPHGHHPHCH
Put plainly: peptide microarray, fluorescent anti-mouse IgG. As for the experimental part: as §1, §2, §3

In assay [12] the target is T11, Peptide #12 (human).
T11 construct: 15-mer of human HRG on the peptide microarray; the printed position spans only 14 residues
T11 peptide: PHGHHPHGHHPHGHH
Put plainly: peptide microarray, fluorescent anti-mouse IgG. As for the experimental part: as §1, §2, §3

Assay [13] has as its target T12, Peptide #13 (human).
T12 construct: 15-mer of human HRG on the peptide microarray; the printed position spans only 14 residues
T12 peptide: HGHHPHGHHPHGHHP
Put plainly: peptide microarray, fluorescent anti-mouse IgG. As for the experimental part: as §1, §2, §3

For assay [14], the target named is T13, Peptide #17 (human).
T13 construct: 15-mer of human HRG printed on a PEPperCHIP peptide microarray
T13 peptide: PHGHHPHGHHPHCHD
The assay is described as follows: peptide microarray, fluorescent anti-mouse IgG. As for the experimental part:
as §1, §2, §3

The target in assay [15] is T14, Peptide #21 (human).
T14 construct: 15-mer of human HRG printed on a PEPperCHIP peptide microarray
T14 peptide: HPHGHHPHCHDFQDY
The assay is described as follows: peptide microarray, fluorescent anti-mouse IgG. As for the experimental part: as §1, §2, §3

Assay [16] has as its target T15, Peptide #26 (human).
T15 construct: 15-mer of human HRG printed on a PEPperCHIP peptide microarray
T15 peptide: HPHCHDFQDYGPCDP
The assay is described as follows: peptide microarray, fluorescent anti-mouse IgG. As for the experimental part:
as §1, §2, §3

The target in assay [17] is T16, Peptide #18 (human).
T16 construct: 15-mer of human HRG printed on a PEPperCHIP peptide microarray
T16 peptide: HGHHPHGHHPHCHDF
Put plainly: peptide microarray, fluorescent anti-mouse IgG. As for the experimental part: as §1, §2, §3

Assay [18] concerns the target T17, Peptide #22 (human).
T17 construct: 15-mer of human HRG printed on a PEPperCHIP peptide microarray
T17 peptide: PHGHHPHCHDFQDYG
Put plainly: peptide microarray, fluorescent anti-mouse IgG. As for the experimental part: as §1, §2, §3

Assay [19] has as its target T18, Peptide #11 (human).
T18 construct: 15-mer of human HRG on the peptide microarray; the printed position spans only 14 residues
T18 peptide: HPHGHHPHGHHPHGH
Put plainly: peptide microarray, fluorescent anti-mouse IgG. As for the experimental part: as §1, §2, §3

B1: anti-HRG monoclonal antibody 69-1A (antibody, V domains shown)
VH: EVKLEESGGGLVQPGGSMKLSCAASGFTFSDAWMDWVRQSPEKGLEWVAEIRSKANNHGTYYAESVKGRFTISRDDSKSSVYLRMNSLSAEDTGIYYCTRPFAYWGQGTLVTVSA
VL: DVVVTQTPLSLPVSLGDQASISCRSSQSLVHIDGNTYFHWYVQKPGQSPKLLIYKVSNRFSGVPDRFSGSGSGTDFTLKISRVEAEDLGVYFCSQSTHVPLTFGAGTKLELK
notes: Mouse hybridoma monoclonal; also called clone No. 69-1A
For the molecule B1, the binding result in assay [1], in assay [2], in assay [3], in assay [4], in [5] and in assay [6] was “binds” in each case. The “absorbance at 450 nm” value in [7] and in [8] was under 1 OD throughout.

B2: anti-HRG monoclonal antibody 75-2D (antibody, V domains shown)
VH: QVQLQQSGAELMKPGASVKISCKATGYTFSSYWIEWVKQRPGHGLEWIGEILPGSGRTNYNEKFKGKATFTADTSSNTAYMQLSSLTSEDSAVYYCARYSYFYYFDYWGQGTTLTVSS
VL: DNVLTQSPAIMSASLGERVTMTCTASSSVSSSYLHWYQQKPGSSPKLWIYSTSNLASGVPARFSGSGSGTSYSLTISSMEAEDAATYYCHQYHRSPWTFGGGTKLEIK
notes: Mouse hybridoma monoclonal; also called clone No. 75-2D
In the case of B2, the binding result in assay [9], in [10], in assay [11], in assay [12], in [13] and in [14] was “binds” in each case. For the same molecule, the binding result in assay [15], in assay [16], in assay [17], in [18] and in assay [19] was “binds” each time.
